In test [1] the target is T1, 6-histidine-tagged Tda2 (His-Tda2) (S. cerevisiae, UniProt P40045 2-126).
T1 sequence: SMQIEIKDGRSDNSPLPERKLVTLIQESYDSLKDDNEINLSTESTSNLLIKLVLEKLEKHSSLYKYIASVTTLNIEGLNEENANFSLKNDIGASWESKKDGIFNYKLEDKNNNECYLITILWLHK
Put plainly: pull-down.

For test [2], the target named is T2, 6-histidine-tagged actin capping protein (His-Cap1/2 heterodimer) (S. cerevisiae, UniProt P28495 1-268; P13517 1-287).
T2 sequence (looked up) 1: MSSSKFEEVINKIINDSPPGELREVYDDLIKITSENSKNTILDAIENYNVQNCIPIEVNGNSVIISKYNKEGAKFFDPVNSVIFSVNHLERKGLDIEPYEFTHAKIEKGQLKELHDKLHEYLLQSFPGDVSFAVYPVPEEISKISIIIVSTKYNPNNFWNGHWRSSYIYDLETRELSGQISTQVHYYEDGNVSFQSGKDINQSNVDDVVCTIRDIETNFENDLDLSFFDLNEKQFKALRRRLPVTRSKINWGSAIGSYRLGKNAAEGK
T2 sequence (looked up) 2: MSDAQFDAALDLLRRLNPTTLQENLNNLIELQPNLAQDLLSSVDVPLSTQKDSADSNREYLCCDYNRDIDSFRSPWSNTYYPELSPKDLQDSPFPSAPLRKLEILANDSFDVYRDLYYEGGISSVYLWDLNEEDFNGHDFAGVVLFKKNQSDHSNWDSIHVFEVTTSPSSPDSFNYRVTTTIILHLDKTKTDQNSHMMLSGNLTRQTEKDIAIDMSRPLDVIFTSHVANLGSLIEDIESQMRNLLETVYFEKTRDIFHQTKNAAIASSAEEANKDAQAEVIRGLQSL
Put plainly: pull-down.

KLPSKVASVEKIEEDDNTNKIEIANNWNVSSSFSKEKVLIDTTPGE (domain or fragment, S. cerevisiae, UniProt P40563 510-555, looked up) [GST-Aim21^510-555 F533A]: the binding result in test [1] is reported as “binds”.

B1: Aim21^1-535-GST (domain or fragment, S. cerevisiae, UniProt P40563 1-535, looked up)
chain: MPSEVTPKVPERPSRRKTSELFPLSGSESGDIKANSEPPTPAGTPNVPTRRPILKAKTMTSFESGMDQESLPKVPLQRPVRRSTTEELNNVMNNTSKELEEIESLISKHNIHNVSRKKSPTSVEEGKVAAIHQNGQRSASDNKTSTNPSPLEKNEHEGAEGNESAISPSNLVNKSNNEVTEHSDSEDLTEKQKVHAALDNEAGDRSHFEEKLIPGDMKVQVDVSKDVEEGSLNALPPSGITESDDKAEKFTKHPESSLEELQKHQEQQEEKIFQNPTDEESTTSLNEKQEGKDNMEVNSQPQGPSDTETVIAATSSNVPSQIASEEENDVPVIPRSRPKKDFEAHVQKEELPNTQEKRVSEECDSTLISTEEESKIPKIPSERPKRRAPPPVPKKPSSRIAAFQEMLQKQQQQDLHNNGNSSATTASADIAKKHTDSSITSDTTKADFTSKLNGLFALPGMVNPGQLPPSLEKKLSSPDTESKLGPQDQSQAKTGPLGGTRRGRGPRGRKLPSKVASVEKIEEDDNTNKIEIFNN
For the molecule B1, the binding result in test [2] is given as “binds”.

For the origin of these results see PMC8351736 (Molecular Biology of the Cell, 2021).
